Laboratory results reported in patent US9273304B2, “Inactivation method” (Thermo Fisher Scientific Baltics UAB, priority 2006, dated 2016).

Biological target: Taq DNA polymerase (Thermus aquaticus, UniProt P19821)
Experiment: Polymerase activity assay: incorporation of [3H]-dTTP into the polynucleotide adsorbed on DE-81 in 30 min at 70° C.
Type: biochemical
Settings: for Activity at 70° C. (%) After 10 min. preheating at 95° C. / Activity at 70° C. (%) Without preheating at 95° C.: aqueous solution
Protocol: The measure of the enzyme activity was incorporation of [^3H]-dTTP into polynucleotide fraction. One unit of polymerase activity is defined as the enzyme amount which incorporates 10 nmoles of deoxyribonucleotides into the polynucleotide adsorbed on DE-81 in 30 min at 70° C.
For activity assays, Taq DNA polymerase was diluted up to 4 u/ml with the dilution buffer of the following composition: 20 mM Tris-HCl (pH 8.8 at 25° C.), 1 mM EDTA, 1 mM DTT, and BSA (0.1 mg/ml). Reactions were carried out at 70° C. for 30 min with 5 μl of the diluted enzyme in 50 μl of the reaction buffer of the following composition: 67 mM Tris-HCl (pH 8.8 at 25° C.), 50 mM NaCl, 6.7 mM MgCl2, 1 mM DTT, and BSA (0.1 mg/ml). The reaction buffer was supplemented with 0.2 mM dNTP, [3H]-dTTP (0.4 MBq/ml) and 0.75 mM activated DNA from calf thymus.
Activity of the modified enzymes was measured either with the pre-incubation step, or without it, for 10 min at 95° C. in the pre-heating buffer of the following composition: 20 mM Tris-HCl (pH 8.25 at 25° C.), 100 mM KCl, 2 mM MgCl2, 0.5% Tween 20, 0.5% Nonidet P40, and 16% glycerol.
Aliquots (35 μl) of the enzyme solution were mixed with 2.25 μl aliquots of the N-ethoxycarbonyl-2,3-dimethylmaleinimide solutions described above resulting in the following molar ratios of Taq DNA polymerase to N-ethoxycarbonyl-2,3-dimethylmaleinimide: 1/1280 1/640, 1/320, 1/160, 1/110, 1/80, 1/40. The mixtures were incubated for 20 hours at 4° C. to modify the Taq DNA polymerase. Control samples, in which the enzyme was left unmodified (e.g., the ratio was 1/0), were obtained by mixing the Taq DNA polymerase with a 2.25 μl aliquot of DMF. These control samples were incubated under the same conditions as the modified ones.
The samples of the unmodified Taq DNA polymerase and the modified Taq DNA polymerases were diluted 250-fold in the pre-heating buffer (see Example 2) and activities of the modified enzyme were measured both before heat-reactivation and after it, as described in the Example 2. Activities of both inactivated and heat-reactivated DNA polymerases were determined as described in the Example 2, and the data were normalized to activity of the unmodified Taq DNA polymerase
Aliquots (20.6 μl) of the diluted enzyme solution were mixed with 1 μl of N-isobutoxycarbonyl-2,3-dimethylmaleinimide solutions described above resulting in different molar ratios of Taq DNA polymerase to N-isobutoxycarbonyl-2,3-dimethylmaleinimide (1/320, 1/160, 1/80 and 1/40). The mixtures were incubated 20 hours at 4° C. to modify the Taq DNA polymerase. Control samples, in which the enzyme was left unmodified (e.g., the ratio was 1/0), were obtained by mixing the Taq DNA polymerase with a 1 μl aliquot of DMF. These control samples were incubated under the same conditions as the modified ones. The heat-reactivation of the modified enzymes was performed as described in the Example 3.

[1] = molar ratio Taq DNA polymerase/N-etoxycarbonyl-2,3-dimethylmaleinimide 1/80
[2] = molar ratio Taq DNA polymerase/N-etoxycarbonyl-2,3-dimethylmaleinimide 1/110
[3] = molar ratio Taq DNA polymerase/N-etoxycarbonyl-2,3-dimethylmaleinimide 1/160
[4] = molar ratio Taq DNA polymerase/N-etoxycarbonyl-2,3-dimethylmaleinimide 1/320
[5] = molar ratio Taq DNA polymerase/N-etoxycarbonyl-2,3-dimethylmaleinimide 1/640
[6] = molar ratio Taq DNA polymerase/N-etoxycarbonyl-2,3-dimethylmaleinimide 1/1280

Chain of Taq DNA polymerase (P19821 whole entry): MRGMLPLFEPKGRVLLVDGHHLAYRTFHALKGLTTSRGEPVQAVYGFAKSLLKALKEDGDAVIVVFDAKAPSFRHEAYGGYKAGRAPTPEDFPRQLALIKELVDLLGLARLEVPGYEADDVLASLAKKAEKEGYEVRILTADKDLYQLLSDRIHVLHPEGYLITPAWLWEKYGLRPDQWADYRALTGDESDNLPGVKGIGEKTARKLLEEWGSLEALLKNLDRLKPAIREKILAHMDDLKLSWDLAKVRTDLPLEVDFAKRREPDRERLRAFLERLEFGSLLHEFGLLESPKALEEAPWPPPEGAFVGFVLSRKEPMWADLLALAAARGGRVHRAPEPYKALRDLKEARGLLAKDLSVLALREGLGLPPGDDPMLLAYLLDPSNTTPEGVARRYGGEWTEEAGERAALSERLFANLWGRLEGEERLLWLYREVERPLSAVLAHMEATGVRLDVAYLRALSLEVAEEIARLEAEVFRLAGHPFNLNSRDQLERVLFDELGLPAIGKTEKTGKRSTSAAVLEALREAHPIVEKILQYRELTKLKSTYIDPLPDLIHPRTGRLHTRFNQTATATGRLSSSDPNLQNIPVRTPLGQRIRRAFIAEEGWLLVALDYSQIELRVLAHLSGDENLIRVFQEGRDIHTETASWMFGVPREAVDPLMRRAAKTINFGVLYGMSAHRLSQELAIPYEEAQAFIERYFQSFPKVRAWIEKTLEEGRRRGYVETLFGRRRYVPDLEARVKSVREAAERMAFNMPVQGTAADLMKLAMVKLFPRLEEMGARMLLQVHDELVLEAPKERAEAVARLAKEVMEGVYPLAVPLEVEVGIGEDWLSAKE

## Taq DNA polymerase modified with N-etoxycarbonyl-2,3-dimethylmaleinimide: Recombinant Taq DNA polymerase reversibly inactivated by reaction with N-ethoxycarbonyl-2,3-dimethylmaleinimide in aqueous solution (preferred molar ratio 1/110)
Incubation 10 min at 94° C.
  restoration of the enzyme activity after incubation for 10 min at 94° C.: almost in the complete restoration of the enzyme activity
Molar ratio Taq DNA polymerase/N-etoxycarbonyl-2,3-dimethylmaleinimide 1/40
  Activity at 70° C. (%) After 10 min. preheating at 95° C.: ~100%
Molar ratio Taq DNA polymerase/N-etoxycarbonyl-2,3-dimethylmaleinimide 1/40, normalized to unmodified enzyme
  Activity at 70° C. (%) Without preheating at 95° C.: ~30%
[1]
  Activity at 70° C. (%) After 10 min. preheating at 95° C.: ~90%
  Activity at 70° C. (%) Without preheating at 95° C.: ~20%
[2]
  Activity at 70° C. (%) After 10 min. preheating at 95° C.: ~100%
  Activity at 70° C. (%) Without preheating at 95° C.: ~20%
[3]
  Activity at 70° C. (%) After 10 min. preheating at 95° C.: ~90%
  Activity at 70° C. (%) Without preheating at 95° C.: ~20%
[4]
  Activity at 70° C. (%) After 10 min. preheating at 95° C.: ~90%
  Activity at 70° C. (%) Without preheating at 95° C.: ~30%
[5]
  Activity at 70° C. (%) After 10 min. preheating at 95° C.: ~50%
  Activity at 70° C. (%) Without preheating at 95° C.: ~40%
[6]
  Activity at 70° C. (%) After 10 min. preheating at 95° C.: ~80%
  Activity at 70° C. (%) Without preheating at 95° C.: ~90%
Several independent experiments, preferred modification (N-ethoxycarbonyl-2,3-dimethylmaleinimide, aqueous, 1/110)
  specific activity retained at 70° C. temperature without preheating: 21±6%
